What is called stoichiometry N is the number of molecules, sites or subunits per partner or assembly.

The experiment addresses T1, recombinant full-length GST-UVR8 (Arabidopsis), Q9FN03.
T1 chain: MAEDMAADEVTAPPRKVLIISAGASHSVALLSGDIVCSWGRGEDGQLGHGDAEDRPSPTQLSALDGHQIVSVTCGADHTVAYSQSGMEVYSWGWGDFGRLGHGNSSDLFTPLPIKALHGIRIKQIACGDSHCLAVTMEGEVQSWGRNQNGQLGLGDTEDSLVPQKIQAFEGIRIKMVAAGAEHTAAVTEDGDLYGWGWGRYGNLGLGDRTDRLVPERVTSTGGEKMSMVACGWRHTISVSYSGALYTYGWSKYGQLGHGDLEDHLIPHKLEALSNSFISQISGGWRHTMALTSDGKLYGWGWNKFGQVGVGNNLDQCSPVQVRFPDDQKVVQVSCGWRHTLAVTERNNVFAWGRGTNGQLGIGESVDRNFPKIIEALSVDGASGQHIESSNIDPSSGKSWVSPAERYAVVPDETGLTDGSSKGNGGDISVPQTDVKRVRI
As to the kind of experiment: SDS-PAGE of non-boiled protein. Particulars: remark: other sources report otherwise.

B1: recombinant full-length GST-UVR8, Q9FN03 1-440 (receptor)
chain: T1 chain
For B1, the stoichiometry N turned out to be 2.

These data come from paper PMC7889724.
